Results on 7 substances are retold here after patent US20170051041A1.

Test in all cases: SPR single-cycle kinetics; reference WT-FVIII-C2
Test [1] deals with FVIII-C2 mutein R2220A (human) (UniProt P00451).
Test [2] addresses FVIII-C2 mutein F2200A (human) (UniProt P00451).
Test [3] addresses FVIII-C2 mutein E2228A (human) (UniProt P00451).
The target of test [4] is FVIII-C2 mutein H2315A (human) (UniProt P00451).
Test [5] has as its target FVIII-C2 mutein L2252A (human) (UniProt P00451).
In test [6] the target is FVIII-C2 mutein Q2316A (human) (UniProt P00451).
Test [7] addresses FVIII-C2 mutein S2254A (human) (UniProt P00451).

UniProt P00451, sequence (P00451 2189-2351 F2219A): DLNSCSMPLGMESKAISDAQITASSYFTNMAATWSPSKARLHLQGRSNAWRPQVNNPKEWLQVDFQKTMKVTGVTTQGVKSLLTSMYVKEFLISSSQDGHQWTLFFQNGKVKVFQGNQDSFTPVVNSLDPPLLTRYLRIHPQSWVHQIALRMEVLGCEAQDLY
Fab fragment of human anti-FVIII mAb BO2C11, sequence (VH): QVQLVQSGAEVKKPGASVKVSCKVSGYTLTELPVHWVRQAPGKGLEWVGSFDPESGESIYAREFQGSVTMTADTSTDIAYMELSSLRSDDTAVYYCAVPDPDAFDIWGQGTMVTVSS
Fab fragment of human anti-FVIII mAb BO2C11, sequence (VL): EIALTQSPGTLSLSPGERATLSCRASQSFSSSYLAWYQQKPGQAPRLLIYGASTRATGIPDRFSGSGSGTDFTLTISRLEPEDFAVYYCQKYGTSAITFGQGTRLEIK

“Murine anti-FVIII C2 domain mAb ESH4 (antibody)” gave a kd(mutein)/kd(WT) in test [1] of 2.7 fold.

“Murine anti-FVIII C2 domain mAb 2-117 (GMA-8003) (antibody)”: in test [1], the kd(mutein)/kd(WT) came to 3 fold.

Take “Fab fragment of human anti-FVIII mAb BO2C11”: the kd(mutein)/kd(WT) in test [2] was greater than 2 fold.

Consider “Murine anti-FVIII C2 domain mAb I109 (antibody)”, for which the kd(mutein)/kd(WT) in test [2] is greater than 2 fold.

Take “Murine anti-FVIII C2 domain mAb ESH8 (antibody)”: the kd(mutein)/kd(WT) in test [1] is 4.5 fold.

For the substance “Murine anti-FVIII C2 domain mAb 3D12 (antibody)”, the kd(mutein)/kd(WT) in test [2] is greater than 2 fold.

As for “Murine anti-FVIII C2 domain mAb 1B5 (GMA-8008) (antibody)”, the kd(mutein)/kd(WT) in test [3], in test [2], in test [4], in test [5], in test [6] and in test [7] was greater than 2 fold each time.
